T1: SR21 serine recombinase (Serine Recombinase 21) (Bacillus safensis strain CCMA-560)
T1 chain: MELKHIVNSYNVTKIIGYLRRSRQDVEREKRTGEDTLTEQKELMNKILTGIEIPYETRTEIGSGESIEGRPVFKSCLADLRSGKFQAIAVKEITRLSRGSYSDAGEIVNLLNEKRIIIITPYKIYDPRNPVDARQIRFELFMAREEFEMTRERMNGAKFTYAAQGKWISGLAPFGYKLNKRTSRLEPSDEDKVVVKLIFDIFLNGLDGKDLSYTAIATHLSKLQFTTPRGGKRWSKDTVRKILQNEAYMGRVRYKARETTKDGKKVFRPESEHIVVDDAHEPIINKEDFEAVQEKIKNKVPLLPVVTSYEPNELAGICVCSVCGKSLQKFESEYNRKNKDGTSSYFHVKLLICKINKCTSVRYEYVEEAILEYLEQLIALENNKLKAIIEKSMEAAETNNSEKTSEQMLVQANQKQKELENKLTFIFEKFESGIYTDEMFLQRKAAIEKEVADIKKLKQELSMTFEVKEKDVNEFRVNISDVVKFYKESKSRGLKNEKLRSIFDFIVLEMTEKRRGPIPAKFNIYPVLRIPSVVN


Legend:
[1] = target: T1, SR21 serine recombinase (Serine …); experiment: cell_activity; attB partner of attP (SEQ 7) in inversion reporter P41, HEK293, fold increase in fLUC over reporter alone; settings: tags: untagged; expressed from CMV promoter plasmid P175 or Ad5-CMV-SR21
Protocol: (§1) To measure SR21 recombinase activity in human cells, 75,000 HEK293 cells were plated into each well of 96-well tissue culture plates in 100 μl of high-glucose DMEM+10% Fetal Bovine Serum. The recombinase reporter plasmid (P041) ±the SR21 Recombinase expression plasmid (P175)+deoxynucleotides (to normalize DNA amounts) were complexed with Fugene-HD transfection reagent in OptiMEM medium for 15 minutes at room temperature as shown in Table 1 and transfected into triplicate wells of the plated cells. Plates were incubated at 37° C. for 48 hours.
(§2) Firefly Luciferase (fLUC) and Renilla luciferase (rLUC) was assayed sequentially in transfected wells using the Dual Glo assay kit from Promega. Medium was removed from the transfected wells of the tissue culture plate and 100 μl of a 1:1 mixture of DMEM medium (without phenol red) and the Dual Glo luciferase+ fLUC substrate was added. The plate was incubated at room temperature for 10 minutes. The lysate was transferred to an opaque white 96-well plate. fLUC activity was measured using the Envision multilabel reader. Next, 50 μl per well of the Stop-and-Glo buffer+Renilla substrate was added and the plate was incubated with gentle shaking for 10 minutes. The Renilla luciferase signal was read on the same Envision reader.

[2] = target: T1, SR21 serine recombinase (Serine …); experiment: cell_activity; attP x attB (SEQ 9) inversion reporter P41 in HEK293, fold increase in fLUC over reporter alone, 37 C 48 h; settings: tags: untagged; expressed from CMV promoter plasmid P175 or Ad5-CMV-SR21
Protocol: as §1, §2

Binder	activity [1]	activity [2]
SR21 attB (Fairview) (dsDNA) DNA 1: CGTCAACATCTCCACTGACAAAGCGGTTTCTCCAACGAAT DNA 2: ATTCGTTGGAGAAACCGCTTTGTCAGTGGAGATGTTGACG	1540 fold	
SR21 attP (dsDNA) DNA 1: AATTAAGTATCATGATAAACTGACAAAGCGGTATATCAAGATACTTAATA DNA 2: TATTAAGTATCTTGATATACCGCTTTGTCAGTTTATCATGATACTTAATT		1540 fold
